From article PMC3326313

T1: GB1-His6-SRSF2 RRM wild type (Homo sapiens, UniProt Q01130 9-101)
T1 sequence: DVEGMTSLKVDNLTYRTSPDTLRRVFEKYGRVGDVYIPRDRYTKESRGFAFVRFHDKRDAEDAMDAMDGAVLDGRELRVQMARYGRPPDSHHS


What was measured:
[1] = target: T1, GB1-His6-SRSF2 RRM wild type; assay: ITC
[2] = target: T1, GB1-His6-SRSF2 RRM wild type; assay: NMR chemical shift titration

Row | Binder | Kd [1] | Kd [2]
1 | AGCAGAGUA (ssRNA) [9-mer AGCAGAGUA] | 0.061 ± 0.001 µM | –
2 | GAGUA (ssRNA) [5-mer GAGUA] | – | ~500 µM
